The source of these data is paper PMC10438457 (Science Advances, 2023).

B1: GST-CDK5RAP3 (natural protein)
chain: MEDHQHVPIDIQTSKLLDWLVDRRHCSLKWQSLVLTIREKINAAIQDMPESEEIAQLLSGSYIHYFHCLRILDLLKGTEASTKNIFGRYSSQRMKDWQEIIALYEKDNTYLVELSSLLVRNVNYEIPSLKKQIAKCQQLQQEYSRKEEECQAGAAEMREQFYHSCKQYGITGENVRGELLALVKDLPSQLAEIGAAAQQSLGEAIDVYQASVGFVCESPTEQVLPMLRFVQKRGNSTVYEWRTGTEPSVVERPHLEELPEQVAEDAIDWGDFGVEAVSEGTDSGISAEAAGIDWGIFPESDSKDPGGDGIDWGDDAVALQITVLEAGTQAPEGVARGPDALTLLEYTETRNQFLDELMELEIFLAQRAVELSEEADVLSVSQFQLAPAILQGQTKEKMVTMVSVLEDLIGKLTSLQLQHLFMILASPRYVDRVTEFLQQKLKQSQLLALKKELMVQKQQEALEEQAALEPKLDLLLEKTKELQKLIEADISKRYSGRPVNLMGTSL
B2: UFC1 (recombinant, GST tag cleaved) (enzyme)
chain: MADEATRRVVSEIPVLKTNAGPRDRELWVQRLKEEYQSLIRYVENNKNADNDWFRLESNKEGTRWFGKCWYIHDLLKYEFDIEFDIPITYPTTAPEIAVPELDGKTAKMYRGGKICLTDHFKPLWARNVPKFGLAHLMALGLGPWLAVEIPDLIQKGVIQHKEKCNQ

In one test the target is T1, MBP-UFL1 (UniProt O94874 1-794).
T1 sequence: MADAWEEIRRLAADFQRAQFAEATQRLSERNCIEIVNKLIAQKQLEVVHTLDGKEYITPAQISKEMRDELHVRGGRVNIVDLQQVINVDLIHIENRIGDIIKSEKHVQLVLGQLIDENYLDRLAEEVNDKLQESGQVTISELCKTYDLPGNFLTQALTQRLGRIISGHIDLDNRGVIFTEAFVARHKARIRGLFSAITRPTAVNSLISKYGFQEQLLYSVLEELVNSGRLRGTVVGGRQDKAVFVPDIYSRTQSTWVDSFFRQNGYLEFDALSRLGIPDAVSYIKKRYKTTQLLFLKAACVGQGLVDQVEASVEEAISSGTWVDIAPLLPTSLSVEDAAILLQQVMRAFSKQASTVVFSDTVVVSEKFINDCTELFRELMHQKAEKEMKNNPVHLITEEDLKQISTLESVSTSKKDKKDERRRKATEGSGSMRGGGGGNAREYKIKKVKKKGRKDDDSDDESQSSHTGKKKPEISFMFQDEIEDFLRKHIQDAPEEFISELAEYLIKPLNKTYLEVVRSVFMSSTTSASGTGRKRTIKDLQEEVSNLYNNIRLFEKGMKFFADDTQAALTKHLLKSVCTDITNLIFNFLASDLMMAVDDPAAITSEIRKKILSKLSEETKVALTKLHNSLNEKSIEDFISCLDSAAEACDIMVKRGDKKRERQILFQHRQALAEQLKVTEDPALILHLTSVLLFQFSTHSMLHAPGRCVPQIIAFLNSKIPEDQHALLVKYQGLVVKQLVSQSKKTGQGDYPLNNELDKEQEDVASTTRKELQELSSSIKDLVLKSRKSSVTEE
Put plainly: pull-down.

The test “GST-CDK5RAP3” deals with B1. Kind of test: pull-down.
Test [1] concerns the target B2. Kind of test: ITC. In general terms: In ITC the heat of successive injections is recorded.

Regarding B1, the binding result in the test with MBP-UFL1 is on record as “binds”. For B2, the binding result in the test with GST-CDK5RAP3 is reported as “binds”.

B3: UFL1 (1-21), UFC1-binding sequence peptide (peptide)
peptide: MADAWEEIRRLAADFQRAQFA
Take B3: the dissociation constant Kd (in general, the concentration at which binding is half-saturated) in test [1] is 410 nM.
